Reference: IntAct's records for PubMed 31515488

B1: Zinc finger protein RFP (Homo sapiens), P14373 (parent)
chain: MASGSVAECLQQETTCPVCLQYFAEPMMLDCGHNICCACLARCWGTAETNVSCPQCRETFPQRHMRPNRHLANVTQLVKQLRTERPSGPGGEMGVCEKHREPLKLYCEEDQMPICVVCDRSREHRGHSVLPLEEAVEGFKEQIQNQLDHLKRVKDLKKRRRAQGEQARAELLSLTQMEREKIVWEFEQLYHSLKEHEYRLLARLEELDLAIYNSINGAITQFSCNISHLSSLIAQLEEKQQQPTRELLQDIGDTLSRAERIRIPEPWITPPDLQEKIHIFAQKCLFLTESLKQFTEKMQSDMEKIQELREAQLYSVDVTLDPDTAYPSLILSDNLRQVRYSYLQQDLPDNPERFNLFPCVLGSPCFIAGRHYWEVEVGDKAKWTIGVCEDSVCRKGGVTSAPQNGFWAVSLWYGKEYWALTSPMTALPLRTPLQRVGIFLDYDAGEVSFYNVTERCHTFTFSHATFCGPVRPYFSLSYSGGKSAAPLIICPMSGIDGFSGHVGNHGHSMETSP
partner: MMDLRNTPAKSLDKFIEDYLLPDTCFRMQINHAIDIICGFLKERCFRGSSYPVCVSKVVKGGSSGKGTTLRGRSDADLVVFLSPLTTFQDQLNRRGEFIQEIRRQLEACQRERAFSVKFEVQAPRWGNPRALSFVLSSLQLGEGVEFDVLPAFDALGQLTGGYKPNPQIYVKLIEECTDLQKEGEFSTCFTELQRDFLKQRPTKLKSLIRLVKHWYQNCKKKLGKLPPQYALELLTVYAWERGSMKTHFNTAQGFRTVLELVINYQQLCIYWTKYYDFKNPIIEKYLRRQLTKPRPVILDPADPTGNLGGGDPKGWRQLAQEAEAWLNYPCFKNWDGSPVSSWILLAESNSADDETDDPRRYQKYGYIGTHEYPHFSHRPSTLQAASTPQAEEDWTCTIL
B2: Protein DDI1 homolog 1 (Homo sapiens), Q8WTU0 (parent)
chain: MLITVYCVRRDLSEVTFSLQVSPDFELRNFKVLCEAESRVPVEEIQIIHMERLLIEDHCSLGSYGLKDGDIVVLLQKDNVGPRAPGRAPNQPRVDFSGIAVPGTSSSRPQHPGQQQQRTPAAQRSQGLASGEKVAGLQGLGSPALIRSMLLSNPHDLSLLKERNPPLAEALLSGSLETFSQVLMEQQREKALREQERLRLYTADPLDREAQAKIEEEIRQQNIEENMNIAIEEAPESFGQVTMLYINCKVNGHPLKAFVDSGAQMTIMSQACAERCNIMRLVDRRWAGVAKGVGTQRIIGRVHLAQIQIEGDFLQCSFSILEDQPMDMLLGLDMLRRHQCSIDLKKNVLVIGTTGTQTYFLPEGELPLCSRMVSGQDESSDKEITHSVMDSGRKEH
partner: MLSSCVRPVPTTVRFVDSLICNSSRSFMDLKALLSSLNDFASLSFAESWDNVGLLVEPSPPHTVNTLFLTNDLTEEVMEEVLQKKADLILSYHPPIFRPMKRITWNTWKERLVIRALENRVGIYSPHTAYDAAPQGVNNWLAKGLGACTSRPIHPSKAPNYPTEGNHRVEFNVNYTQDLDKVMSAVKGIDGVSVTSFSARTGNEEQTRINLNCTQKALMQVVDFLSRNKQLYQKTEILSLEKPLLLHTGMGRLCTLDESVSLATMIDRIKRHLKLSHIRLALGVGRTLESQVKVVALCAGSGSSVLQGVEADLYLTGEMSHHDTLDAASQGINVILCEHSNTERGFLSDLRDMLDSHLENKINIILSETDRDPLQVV
B3: Protein FAM9B (Homo sapiens), Q8IZU0 (parent)
chain: MAAWGKKHAGKDPVRDECEERNRFTETREEDVTDEHGEREPFAETDEHTGANTKKPEDTAEDLTAKRKRMKMDKTCSKTKNKSKHALRKKQLKRQKRDYIHSLKLLNVLEEYITDEQKEEEEEEGEEEELIRIFQEQQKKWQQYRSVRRERLKEMKLLRDQFVKALEDFEDLCDRVFSDEDSELDN
partner: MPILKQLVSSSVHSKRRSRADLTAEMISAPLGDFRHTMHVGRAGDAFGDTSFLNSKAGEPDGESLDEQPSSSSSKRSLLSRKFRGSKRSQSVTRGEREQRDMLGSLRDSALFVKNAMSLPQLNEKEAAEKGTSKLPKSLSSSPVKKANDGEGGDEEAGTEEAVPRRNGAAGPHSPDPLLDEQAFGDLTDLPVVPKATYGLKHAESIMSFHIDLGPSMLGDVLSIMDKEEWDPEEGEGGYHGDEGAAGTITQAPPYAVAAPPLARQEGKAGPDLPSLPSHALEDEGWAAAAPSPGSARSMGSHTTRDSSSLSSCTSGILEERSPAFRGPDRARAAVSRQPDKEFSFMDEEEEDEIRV
B4: Isoform 1 of Targeting protein for Xklp2 (Homo sapiens), Q9ULW0-1 (parent)
chain: MSQVKSSYSYDAPSDFINFSSLDDEGDTQNIDSWFEEKANLENKLLGKNGTGGLFQGKTPLRKANLQQAIVTPLKPVDNTYYKEAEKENLVEQSIPSNACSSLEVEAAISRKTPAQPQRRSLRLSAQKDLEQKEKHHVKMKAKRCATPVIIDEILPSKKMKVSNNKKKPEEEGSAHQDTAEKNASSPEKAKGRHTVPCMPPAKQKFLKSTEEQELEKSMKMQQEVVEMRKKNEEFKKLALAGIGQPVKKSVSQVTKSVDFHFRTDERIKQHPKNQEEYKEVNFTSELRKHPSSPARVTKGCTIVKPFNLSQGKKRTFDETVSTYVPLAQQVEDFHKRTPNRYHLRSKKDDINLLPSKSSVTKICRDPQTPVLQTKHRARAVTCKSTAELEAEELEKLQQYKFKARELDPRILEGGPILPKKPPVKPPTEPIGFDLEIEKRIQERESKKKTEDEHFEFHSRPCPTKILEDVVGVPEKKVLPITVPKSPAFALKNRIRMPTKEDEEEDEPVVIKAQPVPHYGVPFKPQIPEARTVEICPFSFDSRDKERQLQKEKKIKELQKGEVPKFKALPLPHFDTINLPEKKVKNVTQIEPFCLETDRRGALKAQTWKHQLEEELRQQKEAACFKARPNTVISQEPFVPKKEKKSVAEGLSGSLVQEPFQLATEKRAKERQELEKRMAEVEAQKAQQLEEARLQEEEQKKEELARLRRELVHKANPIRKYQGLEIKSSDQPLTVPVSPKFSTRFHC
partner: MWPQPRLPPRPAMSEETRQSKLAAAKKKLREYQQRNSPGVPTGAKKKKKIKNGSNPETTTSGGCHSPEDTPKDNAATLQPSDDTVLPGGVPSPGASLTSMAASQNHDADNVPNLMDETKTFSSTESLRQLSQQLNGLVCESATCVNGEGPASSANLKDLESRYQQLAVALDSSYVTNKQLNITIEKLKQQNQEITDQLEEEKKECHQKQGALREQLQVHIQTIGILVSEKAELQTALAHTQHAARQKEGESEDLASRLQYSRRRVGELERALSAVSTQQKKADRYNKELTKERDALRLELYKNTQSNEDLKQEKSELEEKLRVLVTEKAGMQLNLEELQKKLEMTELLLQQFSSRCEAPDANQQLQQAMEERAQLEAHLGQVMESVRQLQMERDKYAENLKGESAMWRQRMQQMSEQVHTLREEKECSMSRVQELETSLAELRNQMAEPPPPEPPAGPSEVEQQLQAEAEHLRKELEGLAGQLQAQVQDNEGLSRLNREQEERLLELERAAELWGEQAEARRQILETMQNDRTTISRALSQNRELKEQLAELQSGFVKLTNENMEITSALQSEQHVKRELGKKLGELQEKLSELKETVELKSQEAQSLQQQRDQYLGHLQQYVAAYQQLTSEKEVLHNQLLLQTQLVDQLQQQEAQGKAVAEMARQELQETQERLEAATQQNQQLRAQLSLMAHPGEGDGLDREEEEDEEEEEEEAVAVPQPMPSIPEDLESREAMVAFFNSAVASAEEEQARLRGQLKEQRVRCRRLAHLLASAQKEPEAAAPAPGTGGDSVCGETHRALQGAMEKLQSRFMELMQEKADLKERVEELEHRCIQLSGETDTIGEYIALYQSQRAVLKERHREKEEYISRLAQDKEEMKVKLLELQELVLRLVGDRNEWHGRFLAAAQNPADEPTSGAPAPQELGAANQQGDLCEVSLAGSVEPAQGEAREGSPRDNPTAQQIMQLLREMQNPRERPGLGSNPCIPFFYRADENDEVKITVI
B5: Transmembrane protein 140 (Homo sapiens), Q9NV12 (parent)
chain: MAGPRPRWRDQLLFMSIIVLVIVVICLMFYALLWEAGNLTDLPNLRIGFYNFCLWNEDTSTLQCHQFPELEALGVPRVGLGLARLGVYGSLVLTLFAPQPLLLAQCNSDERAWRLAVGFLAVSSVLLAGGLGLFLSYVWKWVRLSLPGPGFLALGSAQALLILLLIAMAVFPLRAERAESKLESC
partner: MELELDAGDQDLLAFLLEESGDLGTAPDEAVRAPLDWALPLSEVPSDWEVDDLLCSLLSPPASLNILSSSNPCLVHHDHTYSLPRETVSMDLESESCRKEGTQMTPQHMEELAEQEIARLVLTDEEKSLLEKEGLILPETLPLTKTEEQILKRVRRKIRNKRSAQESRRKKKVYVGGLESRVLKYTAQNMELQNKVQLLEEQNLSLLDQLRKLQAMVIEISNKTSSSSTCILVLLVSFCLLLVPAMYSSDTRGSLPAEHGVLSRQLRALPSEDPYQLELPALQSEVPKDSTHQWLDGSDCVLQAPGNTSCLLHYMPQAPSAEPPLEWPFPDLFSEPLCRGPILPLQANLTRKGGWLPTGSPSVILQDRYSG
B6: Protein boule-like (Homo sapiens), Q8N9W6 (parent)
chain: MQTDSLSPSPNPVSPVPLNNPTSAPRYGTVIPNRIFVGGIDFKTNESDLRKFFSQYGSVKEVKIVNDRAGVSKGYGFVTFETQEDAQKILQEAEKLNYKDKKLNIGPAIRKQQVGIPRSSIMPAAGTMYLTTSTGYPYTYHNGVAYFHTPEVTSVPPPWPSRSVCSSPVMVAQPIYQQPAYHYQATTQYLPGQWQWSVPQPSASSAPFLYLQPSEVIYQPVEIAQDGGCVPPPLSLMETSVPEPYSDHGVQATYHQVYAPSAITMPAPVMQPEPIKTVWSIHY
partner: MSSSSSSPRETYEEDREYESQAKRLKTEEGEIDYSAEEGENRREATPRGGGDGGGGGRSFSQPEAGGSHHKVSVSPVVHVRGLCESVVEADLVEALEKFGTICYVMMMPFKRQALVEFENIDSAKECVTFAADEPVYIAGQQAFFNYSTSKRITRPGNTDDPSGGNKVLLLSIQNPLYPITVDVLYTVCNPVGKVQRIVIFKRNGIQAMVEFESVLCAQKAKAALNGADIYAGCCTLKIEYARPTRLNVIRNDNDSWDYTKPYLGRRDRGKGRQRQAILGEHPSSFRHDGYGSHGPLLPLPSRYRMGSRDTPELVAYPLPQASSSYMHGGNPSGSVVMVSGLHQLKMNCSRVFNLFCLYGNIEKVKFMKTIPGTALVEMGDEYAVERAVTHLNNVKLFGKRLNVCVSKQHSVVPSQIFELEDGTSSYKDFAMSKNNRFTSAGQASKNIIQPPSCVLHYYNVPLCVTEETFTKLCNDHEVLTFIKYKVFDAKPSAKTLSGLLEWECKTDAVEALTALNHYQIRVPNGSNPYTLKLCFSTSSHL

Variants of: B1
Conditions: with oas1_human OAS1, P00973

Row | effect of a mutation on the interaction | Variant
1 | disrupting interaction strength | N355S

Variants of: B2
Conditions: with nif3l_human NIF3L1, Q9GZT8

Row | Variant | effect of a mutation on the interaction
2 | R87C | with no effect
3 | G136S | with no effect
4 | R208G | with no effect
5 | S63A | with no effect

Continued, values first:

Row | effect of a mutation on the interaction | Variant
6 | with no effect | D323N
7 | with no effect | N228T

Variants of: B3
Conditions: with borg4_human CDC42EP4, Q9H3Q1

Row | effect of a mutation on the interaction | Variant
8 | with no effect | R23H

Variants of: B4
Conditions: with goga2_human GOLGA2, Q08379

Row | effect of a mutation on the interaction | Variant
9 | with no effect | T464N

Variants of: B5
Conditions: with creb3_human CREB3, O43889

Row | effect of a mutation on the interaction | Variant
10 | with no effect | A112E

Variants of: B6
Conditions: with hnrll_human HNRNPLL

Row | effect of a mutation on the interaction | Variant
11 | with no effect | V78I
12 | with no effect | M270I
